The text below walks through data of PMC8913847.

For the experiment, the target named is T1, IRF-3, endogenous in SeV-infected 293T cells (phosphorylated) (human (endogenous in 293T)), Q14653.
T1 chain: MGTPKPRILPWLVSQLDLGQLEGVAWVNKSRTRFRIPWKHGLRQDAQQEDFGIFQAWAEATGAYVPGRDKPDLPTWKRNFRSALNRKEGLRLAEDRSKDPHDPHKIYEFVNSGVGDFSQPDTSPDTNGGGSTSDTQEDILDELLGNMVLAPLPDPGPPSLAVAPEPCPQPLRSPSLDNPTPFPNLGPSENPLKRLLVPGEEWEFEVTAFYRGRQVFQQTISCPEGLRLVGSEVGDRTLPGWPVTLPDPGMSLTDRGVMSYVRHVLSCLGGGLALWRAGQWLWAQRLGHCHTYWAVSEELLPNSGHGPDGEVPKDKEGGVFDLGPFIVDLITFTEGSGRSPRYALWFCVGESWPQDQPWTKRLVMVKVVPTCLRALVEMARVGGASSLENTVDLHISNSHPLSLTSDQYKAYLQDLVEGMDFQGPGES
Briefly: native gel or EMSA; native PAGE (7.5% gel, 0.2% sodium deoxycholate in the upper chamber buffer) of total lysates of 293T and 293T DDX3KO cells infected with SeV for the indicated times; immunoblot for IRF-3. The following applies: remark: other sources report otherwise.

B1: IRF-3, endogenous in SeV-infected 293T cells (phosphorylated), Q14653 1-427 (natural protein)
chain: MGTPKPRILPWLVSQLDLGQLEGVAWVNKSRTRFRIPWKHGLRQDAQQEDFGIFQAWAEATGAYVPGRDKPDLPTWKRNFRSALNRKEGLRLAEDRSKDPHDPHKIYEFVNSGVGDFSQPDTSPDTNGGGSTSDTQEDILDELLGNMVLAPLPDPGPPSLAVAPEPCPQPLRSPSLDNPTPFPNLGPSENPLKRLLVPGEEWEFEVTAFYRGRQVFQQTISCPEGLRLVGSEVGDRTLPGWPVTLPDPGMSLTDRGVMSYVRHVLSCLGGGLALWRAGQWLWAQRLGHCHTYWAVSEELLPNSGHGPDGEVPKDKEGGVFDLGPFIVDLITFTEGSGRSPRYALWFCVGESWPQDQPWTKRLVMVKVVPTCLRALVEMARVGGASSLENTVDLHISNSHPLSLTSDQYKAYLQDLVEGMDFQGPGES
modifications: here or on the partner: phosphorylation detected with phospho-specific antibody (S396); mobility retardation suggesting phosphorylation at multiple sites; phosphorylation detected with phospho-specific antibody (S396); mobility retardation suggesting phosphorylation at multiple sites
As for B1, the stoichiometry N came out at 2.
